“And” between values parts separate entries of the source, which are not always exact repeats. Equal entries are not always repeated.
How the values were obtained:
Type in all cases: cell-based, human
[1] = tested on: hESC-derived retinal progenitor cells; assay: Differentiation into photoreceptor cells with Wnt3a or its inhibitor Dkk-1, without Shh and retinoic acid; immunofluorescent staining on Day 29
Method: In order to examine the function of the Wnt signaling pathway activator on differentiation from hESCs into retinal cells, particularly photoreceptor cells, cells were cultured in the presence of a Wnt signaling pathway antagonist. The Wnt/Frizzled signaling pathway inhibitor Dkk-1 (R&D Systems, Minneapolis, Minn., USA) was added at a concentration of 10 ng/ml, 100 ng/ml or 1 μg/ml on day 13, followed by culturing the cells for an additional 16 days. While the antagonist concentrations were maintained uniformly over the culture time period, the Wnt signaling pathway activator was assayed for activity. Dkk-1 was dissolved in 0.1% bovine serum albumin (BSA, Sigma-Aldrich) in PBS before use.
According to a protocol for differentiation into retinal cells, Wnt3a and Dkk-1 were added on Day 13 at the following concentrations: 50 ng/ml Wnt3a (group I), free of both Wnt3a and Dkk-1 (group II), 10 ng/ml Dkk-1 (group III), 100 ng/ml Dkk-1 (group IV), and […] Dkk-1 (group V). In each medium, the cells were cultured to Day 29. In this experiment, none of the other major differentiation factors Shh and RA were used.
On Day 29, the cells which had been cultured on poly-D-lysine/laminin-coated, 8-well slides (BD Biosciences) under the conditions of Wnt3a and Dkk-1 (groups I-V) were fixed with 4% paraformaldehyde (Sigma-Aldrich), after which non-specific reactions were blocked with PBS containing 3% BSA (Jackson Immunoresearch Laboratory, Bar Harbor, Me., USA) and 0.25% Triton X-100 (Sigma-Aldrich).
(§1) After being blocked for 90 min, the slides in each differentiation step were incubated overnight at 4° C. with the following antibodies specific for cells of each differentiation step: rabbit-Blue-opsin (1:500, Chemicon), sheep-Chx10 (1:100, Chemicon), rabbit-Crx (1:200, Santa Cruz Biotechnology, Santa Cruz, Calif., USA), rabbit-GFAP (1:200, Invitrogen), mouse-human specific mitochondria (1:50, Chemicon), rabbit-human specific mitochondria (1:200, Chemicon), mouse-Islet1 (1:10, Developmental Studies Hydroma Bank, DSHB; Iowa City, Iowa, USA), mouse-Ki67 (1:100, Vector Laboratories, Peterborough, England), mouse-Mitf (1:1,000, abcam, Cambridge, Mass., USA), mouse-nestin (1:250, BD Sciences), rabbit-neurofilament-200 (1:1,000, Sigma-Aldrich), rabbit-Otx2 (1:100, abcam), rabbit-Pax2 (1:250, abcam), mouse-Pax6 (1:2, DSHB), mouse-peripherin2 (1:500, GenScript, Piscataway, N.J., USA), rabbit-Rax (1:250, abcam), rabbit-recoverin (1:1,000, Chemicon), retinal pigment epithelium 65 (RPE65, 1:100, Chemicon), rabbit-rhodopsin (1:500, Sigma-Aldrich), mouse-rhodopsin (1:500, Ret-P1, Lab Vision, Fremont, Calif., USA), mouse-rhodopsin (1:2,000, Ret-P1, Sigma-Aldrich), mouse-rom1 (1:50, ABR-Affinity Bioreagents, Golden, Colo., USA), rabbit-PDE6 beta (1:100, abcam), rabbit-phosducin (1:500, Santa Cruz Biotechnology), mouse-PKC-alpha (1:500, Sigma-Aldrich), mouse-Prox1 (1:2,000, Chemicon), mouse-Sox2 (1:250, R&D Systems), rabbit-synaptophysin (1:2,000, Santa Cruz Biotechnology), and rabbit-ZO-1 (1:100, Zymed-Invitrogen).
Before use, these antibodies were diluted in a PBS solution containing 1% BSA and 0.25% Triton X-100. The cells were washed three times for 5 min with PBS and incubated at room temperature for 2 hrs with species-specific secondary antibody conjugated with Cy3 (1:800, Jackson Immunoresearch Laboratory) or Alexa488 (1:500, Invitrogen). A standard material suitable for the primary and the secondary antibody was used to examine non-specific staining or interaction between the antibodies. Afterwards, the cells were washed three times for 5 min with PBS, counterstained with DAPI (4,6-diamidino-2 phenylindole) and mounted in Vectashield (Vector Laboratories), followed by visualization under an epifluorescence microscope (Nikon Eclipse, E800, Tokyo, Japan) and a confocal microscope (Leica, Leica Microsystems Inc, Bannockburn, Ill., USA or Zeiss LSM510, Carl Zeiss, Inc, Thornwood, N.Y., USA). […]

[2] = tested on: hESC-derived retinal progenitor cells; assay: Expression levels of retinal cell markers before and after Wnt3a addition (retinal progenitor cells into neural retinal progenitor cells); conditions: on Day 18; Wnt3a 50 ng/ml for 5 days from Day 13
Method: To differentiate the retinal progenitor cells generated in Example 3 into neural retinal progenitor cells, Dkk-1 supply was quit on day 3 after induction and a culture medium containing a combination of noggin, IGF-1, FGF2 and Wnt3a was supplied for 5 days (FIG. 1). The culture medium was composed as follows: [DMEM/F12 (Invitrogen), 1 mM L-glutamine (Invitrogen), 0.1 mM nonessential amino acids (Invitrogen), 0.1 mM mercaptoethanol (Sigma-Aldrich), 1% B27 supplement (Invitrogen), 1% N2 supplement (Invitrogen), 10 ng/ml noggin, 10 ng/ml IGF-1, 5 ng/ml FGF2, and 50 ng/ml recombinant Wnt3a (R&D Systems)].
The eye field precursors (floating aggregates) were cultured in 8-well poly-D-lysine/laminin-coated slides (BD Biosciences, Bedford, Mass.) under the same conditions that were used for differentiation into the retinal progenitor cells, the neural retinal progenitor cells, the photoreceptor cell precursors and the photoreceptor cells. The cells completely cultured in each step were fixed with 4% paraformaldehyde (Sigma-Aldrich), after which non-specific reactions were blocked with PBS containing 3% BSA (Jackson Immunoresearch Laboratory, Bar Harbor, Me., USA) and 0.25% Triton X-100 (Sigma-Aldrich).
as §1
Before use, these antibodies were diluted in a PBS solution containing 1% BSA and 0.25% Triton X-100. The cells cultured on the slides in each step were washed three times for 5 min with PBS and incubated at room temperature for 2 hrs with species-specific secondary antibody conjugated with Cy3 (1:800, Jackson Immunoresearch Laboratory) or Alexa488 (1:500, Invitrogen). A standard material suitable for the primary and the secondary antibody was used to examine non-specific staining or interaction between the antibodies. Afterwards, the cells were washed three times for 5 min with PBS, counterstained with DAPI (4,6-diamidino-2 phenylindole) and mounted in Vectashield (Vector Laboratories), followed by visualization under an epifluorescence microscope (Nikon Eclipse, E800, Tokyo, Japan) and a confocal microscope (Leica, Leica Microsystems Inc, Bannockburn, Ill., USA or Zeiss LSM510, Carl Zeiss, Inc, Thornwood, N.Y., USA).
500 cells were counted from 20 microscopic fields randomly selected at 200 magnification and evaluated for positive responses to each antibody. Positive responses to antibodies were determined after at least three evaluations. […]

[3] = tested on: hESC-derived retinal progenitor cells; assay: as above
[4] = Dkk-1 10 ng/ml (Group III), from Day 13 to Day 29, no Wnt3a, Shh, RA
[5] = Dkk-1 10 ng/ml, 100 ng/ml, 1 μg/ml
[6] = Dkk-1 100 ng/ml (Group IV), from Day 13 to Day 29, no Wnt3a, Shh, RA
[7] = Dkk-1 1 μg/ml (Group V), from Day 13 to Day 29, no Wnt3a, Shh, RA
[8] = Wnt3a 50 ng/ml (Group I), from Day 13 to Day 29, no Shh, no RA

B1: Dkk-1: recombinant Dkk-1 (R&D Systems), Wnt/Frizzled signaling pathway inhibitor (protein, UniProt O94907 32-266, looked up)
Dickkopf-related protein 1: TLNSVLNSNAIKNLPPPLGGAAGHPGSAVSAAPGILYPGGNKYQTIDNYQPYPCAEDEECGTDEYCASPTRGGDAGVQICLACRKRRKRCMRHAMCCPGNYCKNGICVSSDQNHFRGEIEETITESFGNDHSTLDGYSRRTTLSSKMYHTKGQEGSVCLRSSDCASGLCCARHFWSKICKPVLKEGQVCTKHRRKGSHGLEIFQRCYCGEGLSCRIQKDHHQASNSSRLHTCQRH
Positive rate of Crx [1, 4]: 54.3 (±3.1) %
Positive rate of Pax6 [1, 4]: 63.9 (±0.9) %
Positive rate of peripherin2 [1, 4]: 27.0 (±1.0) %
Positive rate of recoverin [1, 4]: 55.1 (±0.6) %
Positive rate of rhodopsin [1, 4]: 49.1 (±2.0) %
Expression level of photoreceptor cell markers Crx, recoverin, rhodopsin and peripherin2 with increasing Dkk-1 concentration [1, 5]: remarkably decreased
Expression level of retinal progenitor cell marker Pax6 with increase in Dkk-1 concentration [1, 5]: decreased
Positive rate of Crx [1, 6]: 7.4 (±1.1) %
Positive rate of Pax6 [1, 6]: 51.8 (±1.0) %
Positive rate of peripherin2 [1, 6]: 2.1 (±1.0) %
Positive rate of recoverin [1, 6]: 41.5 (±1.3) %
Positive rate of rhodopsin [1, 6]: 28.9 (±0.5) %
Positive rate of Crx [1, 7]: 7.5 (±0.9) %
Positive rate of Pax6 [1, 7]: 42.1 (±2.1) %
Positive rate of peripherin2 [1, 7]: 0.1 (±0.1) %
Positive rate of recoverin [1, 7]: 15.2 (±4.0) %
Positive rate of rhodopsin [1, 7]: 11.9% and 11.9 (±3.0) %

B2: Wnt3a: recombinant Wnt3a (R&D Systems), Wnt signaling pathway activator (protein, UniProt P56704 19-352, looked up)
Protein Wnt-3a: SYPIWWSLAVGPQYSSLGSQPILCASIPGLVPKQLRFCRNYVEIMPSVAEGIKIGIQECQHQFRGRRWNCTTVHDSLAIFGPVLDKATRESAFVHAIASAGVAFAVTRSCAEGTAAICGCSSRHQGSPGKGWKWGGCSEDIEFGGMVSREFADARENRPDARSAMNRHNNEAGRQAIASHMHLKCKCHGLSGSCEVKTCWWSQPDFRAIGDFLKDKYDSASEMVVEKHRESRGWVETLRPRYTYFKVPTERDLVYYEASPNFCEPNPETGSFGTRDRTCNVSSHGIDGCDLLCCGRGHNARAERRREKCRCVFHWCCYVSCQECTRVYDVHTCK
Positive rate of Crx [1, 8]: 32.5 (±0.3) %
Positive rate of Pax6 [1, 8]: 82.1 (±4.0) %
Positive rate of peripherin2 [1, 8]: 21.5 (±0.3) %
Positive rate of recoverin [1, 8]: 72.3 (±0.8) %
Positive rate of rhodopsin [1, 8]: 73.8 (±0.9) %
Expression level (positive rate) of Chx10 after Wnt3a addition [2]: 64.5 (±1.6) %
Expression level (positive rate) of Crx after Wnt3a addition [2]: 80.1% and 80.1 (±0.2) %
Expression level (positive rate) of Ki67 after Wnt3a addition [2]: 31.5 (±0.5) %
Expression level (positive rate) of Mitf after Wnt3a addition [2]: 2.7 (±1.0) %
Expression level (positive rate) of Nestin after Wnt3a addition [2]: 18.0% and 18.0 (±1.4) %
Expression level (positive rate) of Otx2 after Wnt3a addition [2]: 61.5 (±0.6) %
Expression level (positive rate) of Pax6 after Wnt3a addition [2]: 89.1 (±2.5) %
Expression level (positive rate) of Peripherin2 after Wnt3a addition [2]: 13.9% and 13.9 (±2.4) %
Expression level (positive rate) of Rax after Wnt3a addition [2]: 98.2 (±0.9) %
Expression level (positive rate) of Recoverin after Wnt3a addition [2]: 68.5% and 68.5 (±2.6) %
Expression level (positive rate) of Rhodopsin after Wnt3a addition [2]: 52.9% and 52.9 (±3.4) %
Expression level (positive rate) of Sox2 after Wnt3a addition [2]: 68.1 (±1.1) %
Pax6-positive cells with increase in Wnt3a concentration [3]: increased in a dose-dependent manner

— patent publication US9200252B2, “Compositions for inducing differentiation into retinal cells from retinal progenitor cells or inducing proliferation of retinal cells comprising Wnt signaling pathway activators” (SNU R&DB Foundation, priority 2009, dated 2015)
